Measurements as given in publication doi:10.1101/2022.05.24.493195 (bioRxiv, 2022).

Biological target: T161 phosphorylated CDK1 (full-length human CDK1) (human, UniProt P06493 1-297, phosphothreonine at T161)
Assay: SEC

binding result: binds
B1: Human cyclin B1, residues 165-433 carrying the C167S/C238S/C350S mutations (domain or fragment)
chain: NLSSEYVKDIYAYLRQLEEEQAVRPKYLLGREVTGNMRAILIDWLVQVQMKFRLLQETMYMTVSIIDRFMQNNSVPKKMLQLVGVTAMFIASKYEEMYPPEIGDFAFVTDNTYTKHQIRQMEMKILRALNFGLGRPLPLHFLRRASKIGEVDVEQHTLAKYLMELTMLDYDMVHFPPSQIAAGAFSLALKILDNGEWTPTLQHYLSYTEESLLPVMQHLAKNVVMVNQGLTKHMTVKNKYATSKHAKISTLPQLNSALVQDLAKAVAKV
